Our source for the binding result and Kd values is patent publication US20210324028A1 (Pfizer, published 2021).

The target of test [1] is T1, human IL-2Rβ (human, UniProt P14784 27-240, limits assumed).
T1 construct: also called hIL-2Rβ; IL-2 receptor beta
T1 sequence (looked up): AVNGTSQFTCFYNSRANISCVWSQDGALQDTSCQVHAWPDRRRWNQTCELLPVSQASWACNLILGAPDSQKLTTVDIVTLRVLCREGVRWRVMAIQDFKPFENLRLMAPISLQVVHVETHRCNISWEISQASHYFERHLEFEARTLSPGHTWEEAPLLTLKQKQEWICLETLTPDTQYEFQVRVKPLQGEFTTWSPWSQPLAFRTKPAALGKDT
Briefly: SPR 37C.

The next test addresses T2, human IL-15Rα (human, UniProt Q13261 31-205, limits assumed).
T2 construct: also called hIL-15Rα; IL-15 receptor alpha
In words: SPR, steady state. Background: In SPR one partner is held on a chip, and binding of the other changes the refractive index at the surface.

Test [2] deals with T1, human IL-2Rβ. Briefly: SPR, steady state.

T2 sequence (Q13261 31-205 limits assumed): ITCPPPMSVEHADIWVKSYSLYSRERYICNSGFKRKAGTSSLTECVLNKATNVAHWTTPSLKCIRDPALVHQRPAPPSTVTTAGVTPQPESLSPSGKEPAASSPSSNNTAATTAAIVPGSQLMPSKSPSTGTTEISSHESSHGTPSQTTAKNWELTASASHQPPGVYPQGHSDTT

B1: hIL-15 V49R/D8A (ligand)
chain: NWVNVISALKKIEDLIQSMHIDATLYTESDVHPSCKVTAMKCFLLELQRISLESGDASIHDTVENLIILANNSLSSNGNVTESGCKECEELEEKNIKEFLQSFVHIVQMFINTGGGGSGHHHHHHHHGGGLNDIFEAQKIEWHE
Broadly, the Kd is the equilibrium constant for the complex coming apart. Read a low Kd as higher affinity. B1: the binding result with human IL-2Rβ [1] is reported as “no binding”. In the test with human IL-15Rα, binding was put at a Kd of 102 nM.

B2: hIL-15 V49R/S7R (ligand)
chain: NWVNVIRDLKKIEDLIQSMHIDATLYTESDVHPSCKVTAMKCFLLELQRISLESGDASIHDTVENLIILANNSLSSNGNVTESGCKECEELEEKNIKEFLQSFVHIVQMFINTGGGGSGHHHHHHHHGGGLNDIFEAQKIEWHE
With B2, the values for the Kd with human IL-15Rα and with human IL-2Rβ [2] were 77 nM and greater than 500 nM, respectively.

B3: hIL-15 V49R/K11P (ligand)
chain: NWVNVISDLKPIEDLIQSMHIDATLYTESDVHPSCKVTAMKCFLLELQRISLESGDASIHDTVENLIILANNSLSSNGNVTESGCKECEELEEKNIKEFLQSFVHIVQMFINTGGGGSGHHHHHHHHGGGLNDIFEAQKIEWHE
B3: in the test with human IL-2Rβ [1], the binding result is on record as “no binding”.

B4: hIL-15 V49R/D8K (ligand)
chain: NWVNVISKLKKIEDLIQSMHIDATLYTESDVHPSCKVTAMKCFLLELQRISLESGDASIHDTVENLIILANNSLSSNGNVTESGCKECEELEEKNIKEFLQSFVHIVQMFINTGGGGSGHHHHHHHHGGGLNDIFEAQKIEWHE
On to B4, for which the binding result with human IL-2Rβ [1] is on record as “no binding”. In the test with human IL-15Rα, this molecule registered a Kd of 101 nM.

B5: hIL-15 V49R/V31S (ligand)
chain: NWVNVISDLKKIEDLIQSMHIDATLYTESDSHPSCKVTAMKCFLLELQRISLESGDASIHDTVENLIILANNSLSSNGNVTESGCKECEELEEKNIKEFLQSFVHIVQMFINTGGGGSGHHHHHHHHGGGLNDIFEAQKIEWHE
For B5, the Kd is 265 nM with human IL-15Rα and greater than 500 nM in the test with human IL-2Rβ [2].

B6: hIL-15 V49R/S7Q (ligand)
chain: NWVNVIQDLKKIEDLIQSMHIDATLYTESDVHPSCKVTAMKCFLLELQRISLESGDASIHDTVENLIILANNSLSSNGNVTESGCKECEELEEKNIKEFLQSFVHIVQMFINTGGGGSGHHHHHHHHGGGLNDIFEAQKIEWHE
Consider B6, for which the Kd was found to be 88.1 nM with human IL-15Rα and 215 nM with human IL-2Rβ [2].

B7: hIL-15 V49R/V31A (ligand)
chain: NWVNVISDLKKIEDLIQSMHIDATLYTESDAHPSCKVTAMKCFLLELQRISLESGDASIHDTVENLIILANNSLSSNGNVTESGCKECEELEEKNIKEFLQSFVHIVQMFINTGGGGSGHHHHHHHHGGGLNDIFEAQKIEWHE
As for B7, the dissociation constant (Kd) with human IL-15Rα amounted to 129 nM; in the test with human IL-2Rβ [2] it was 269 nM.

B8: hIL-15 V49R/S7K (ligand)
chain: NWVNVIKDLKKIEDLIQSMHIDATLYTESDVHPSCKVTAMKCFLLELQRISLESGDASIHDTVENLIILANNSLSSNGNVTESGCKECEELEEKNIKEFLQSFVHIVQMFINTGGGGSGHHHHHHHHGGGLNDIFEAQKIEWHE
Take B8: the Kd with human IL-15Rα is 103 nM; with human IL-2Rβ [2], greater than 500 nM.

B9: hIL-15 V49R/S29N (ligand)
chain: NWVNVISDLKKIEDLIQSMHIDATLYTENDVHPSCKVTAMKCFLLELQRISLESGDASIHDTVENLIILANNSLSSNGNVTESGCKECEELEEKNIKEFLQSFVHIVQMFINTGGGGSGHHHHHHHHGGGLNDIFEAQKIEWHE
For the molecule B9, the Kd is 154 nM with human IL-15Rα and 322 nM with human IL-2Rβ [2].

B10: hIL-15 V49R/N4I (ligand)
chain: NWVIVISDLKKIEDLIQSMHIDATLYTESDVHPSCKVTAMKCFLLELQRISLESGDASIHDTVENLIILANNSLSSNGNVTESGCKECEELEEKNIKEFLQSFVHIVQMFINTGGGGSGHHHHHHHHGGGLNDIFEAQKIEWHE
Take B10: the binding result in the test with human IL-2Rβ [1] is reported as “no binding”.

B11: hIL-15 V49R/S7E (ligand)
chain: NWVNVIEDLKKIEDLIQSMHIDATLYTESDVHPSCKVTAMKCFLLELQRISLESGDASIHDTVENLIILANNSLSSNGNVTESGCKECEELEEKNIKEFLQSFVHIVQMFINTGGGGSGHHHHHHHHGGGLNDIFEAQKIEWHE
With B11, the Kd was 87.6 nM with human IL-15Rα and greater than 500 nM with human IL-2Rβ [2].

B12: hIL-15 V49R/S29A (ligand)
chain: NWVNVISDLKKIEDLIQSMHIDATLYTEADVHPSCKVTAMKCFLLELQRISLESGDASIHDTVENLIILANNSLSSNGNVTESGCKECEELEEKNIKEFLQSFVHIVQMFINTGGGGSGHHHHHHHHGGGLNDIFEAQKIEWHE
B12: the figures for the Kd in the test with human IL-15Rα and in the test with human IL-2Rβ [2] were 154 nM and 274 nM, respectively.

B13: hIL-15 V49R/V31D (ligand)
chain: NWVNVISDLKKIEDLIQSMHIDATLYTESDDHPSCKVTAMKCFLLELQRISLESGDASIHDTVENLIILANNSLSSNGNVTESGCKECEELEEKNIKEFLQSFVHIVQMFINTGGGGSGHHHHHHHHGGGLNDIFEAQKIEWHE
For B13, the Kd with human IL-15Rα and in the test with human IL-2Rβ [2] was greater than 500 nM in each case.

B14: hIL-15 V49R/S7N (ligand)
chain: NWVNVINDLKKIEDLIQSMHIDATLYTESDVHPSCKVTAMKCFLLELQRISLESGDASIHDTVENLIILANNSLSSNGNVTESGCKECEELEEKNIKEFLQSFVHIVQMFINTGGGGSGHHHHHHHHGGGLNDIFEAQKIEWHE
Turning to B14, the Kd is 93.2 nM with human IL-15Rα and greater than 500 nM in the test with human IL-2Rβ [2].

B15: hIL-15 V49R/S7H (ligand)
chain: NWVNVIHDLKKIEDLIQSMHIDATLYTESDVHPSCKVTAMKCFLLELQRISLESGDASIHDTVENLIILANNSLSSNGNVTESGCKECEELEEKNIKEFLQSFVHIVQMFINTGGGGSGHHHHHHHHGGGLNDIFEAQKIEWHE
On to B15, for which the results for the Kd in the test with human IL-15Rα and in the test with human IL-2Rβ [2] were 75.6 nM and 354 nM, respectively.

B16: hIL-15 V49R/S7G (ligand)
chain: NWVNVIGDLKKIEDLIQSMHIDATLYTESDVHPSCKVTAMKCFLLELQRISLESGDASIHDTVENLIILANNSLSSNGNVTESGCKECEELEEKNIKEFLQSFVHIVQMFINTGGGGSGHHHHHHHHGGGLNDIFEAQKIEWHE
Turning to B16, the Kd in the test with human IL-15Rα was 147 nM; with human IL-2Rβ [2] it was greater than 500 nM.

B17: hIL-15 V49R/S29D (ligand)
chain: NWVNVISDLKKIEDLIQSMHIDATLYTEDDVHPSCKVTAMKCFLLELQRISLESGDASIHDTVENLIILANNSLSSNGNVTESGCKECEELEEKNIKEFLQSFVHIVQMFINTGGGGSGHHHHHHHHGGGLNDIFEAQKIEWHE
Regarding B17, the Kd was 121 nM with human IL-15Rα and 238 nM with human IL-2Rβ [2].

B18: hIL-15 V49R/Q108D (ligand)
chain: NWVNVISDLKKIEDLIQSMHIDATLYTESDVHPSCKVTAMKCFLLELQRISLESGDASIHDTVENLIILANNSLSSNGNVTESGCKECEELEEKNIKEFLQSFVHIVDMFINTGGGGSGHHHHHHHHGGGLNDIFEAQKIEWHE
In the case of B18, the figures for the Kd with human IL-15Rα and with human IL-2Rβ [2] were 125 nM and 215 nM, respectively.

B19: hIL-15 V49R/K10P (ligand)
chain: NWVNVISDLPKIEDLIQSMHIDATLYTESDVHPSCKVTAMKCFLLELQRISLESGDASIHDTVENLIILANNSLSSNGNVTESGCKECEELEEKNIKEFLQSFVHIVQMFINTGGGGSGHHHHHHHHGGGLNDIFEAQKIEWHE
In the case of B19, the binding result with human IL-2Rβ [1] is given as “no binding”.

B20: hIL-15 V49R/S7D (ligand)
chain: NWVNVIDDLKKIEDLIQSMHIDATLYTESDVHPSCKVTAMKCFLLELQRISLESGDASIHDTVENLIILANNSLSSNGNVTESGCKECEELEEKNIKEFLQSFVHIVQMFINTGGGGSGHHHHHHHHGGGLNDIFEAQKIEWHE
Turning to B20, the figures for the Kd with human IL-15Rα and with human IL-2Rβ [2] were 121 nM and greater than 500 nM, respectively.

B21: hIL-15 V49R/S29K (ligand)
chain: NWVNVISDLKKIEDLIQSMHIDATLYTEKDVHPSCKVTAMKCFLLELQRISLESGDASIHDTVENLIILANNSLSSNGNVTESGCKECEELEEKNIKEFLQSFVHIVQMFINTGGGGSGHHHHHHHHGGGLNDIFEAQKIEWHE
With B21, the values for the Kd in the test with human IL-15Rα and in the test with human IL-2Rβ [2] were 261 nM and 248 nM, respectively.

B22: hIL-15 V49R/Q108K (ligand)
chain: NWVNVISDLKKIEDLIQSMHIDATLYTESDVHPSCKVTAMKCFLLELQRISLESGDASIHDTVENLIILANNSLSSNGNVTESGCKECEELEEKNIKEFLQSFVHIVKMFINTGGGGSGHHHHHHHHGGGLNDIFEAQKIEWHE
B22: the Kd with human IL-15Rα stood at 85.4 nM; in the test with human IL-2Rβ [2], 249 nM.

B23: hIL-15 V49R/Q108S (ligand)
chain: NWVNVISDLKKIEDLIQSMHIDATLYTESDVHPSCKVTAMKCFLLELQRISLESGDASIHDTVENLIILANNSLSSNGNVTESGCKECEELEEKNIKEFLQSFVHIVSMFINTGGGGSGHHHHHHHHGGGLNDIFEAQKIEWHE
With B23, the Kd with human IL-15Rα amounted to 144 nM; with human IL-2Rβ [2] it was 290 nM.

B24: hIL-15 V49R/S7T (ligand)
chain: NWVNVITDLKKIEDLIQSMHIDATLYTESDVHPSCKVTAMKCFLLELQRISLESGDASIHDTVENLIILANNSLSSNGNVTESGCKECEELEEKNIKEFLQSFVHIVQMFINTGGGGSGHHHHHHHHGGGLNDIFEAQKIEWHE
For B24, the Kd is 93.9 nM in the test with human IL-15Rα and greater than 500 nM in the test with human IL-2Rβ [2].

B25: hIL-15 V49R/S7A (ligand)
chain: NWVNVIADLKKIEDLIQSMHIDATLYTESDVHPSCKVTAMKCFLLELQRISLESGDASIHDTVENLIILANNSLSSNGNVTESGCKECEELEEKNIKEFLQSFVHIVQMFINTGGGGSGHHHHHHHHGGGLNDIFEAQKIEWHE
Regarding B25, the Kd was found to be 84 nM with human IL-15Rα and 220 nM with human IL-2Rβ [2].
